Here are results for one molecule from paper PMC11705640, “Tubulointerstitial nephritis antigen-like 1 promotes the progression of liver fibrosis after HCV eradication with direct-acting antivirals” (International Journal of Biological Sciences, 2025).

The target in the assay is T1, recombinant human TINAGL1 protein (tubulointerstitial nephritis antigen-like 1), C-6×His (human, UniProt Q9GZM7 22-467).
T1 construct: tubulointerstitial nephritis antigen-like 1 (TINAGL1), human, recombinant; Bought protein; Held on the Ni-NTA chip by its C-terminal His tag; also called rhTINAGL1; source: bought: Novoprotein (Cat# CB22); not shown: His6, C-terminal, kept
T1 sequence (looked up): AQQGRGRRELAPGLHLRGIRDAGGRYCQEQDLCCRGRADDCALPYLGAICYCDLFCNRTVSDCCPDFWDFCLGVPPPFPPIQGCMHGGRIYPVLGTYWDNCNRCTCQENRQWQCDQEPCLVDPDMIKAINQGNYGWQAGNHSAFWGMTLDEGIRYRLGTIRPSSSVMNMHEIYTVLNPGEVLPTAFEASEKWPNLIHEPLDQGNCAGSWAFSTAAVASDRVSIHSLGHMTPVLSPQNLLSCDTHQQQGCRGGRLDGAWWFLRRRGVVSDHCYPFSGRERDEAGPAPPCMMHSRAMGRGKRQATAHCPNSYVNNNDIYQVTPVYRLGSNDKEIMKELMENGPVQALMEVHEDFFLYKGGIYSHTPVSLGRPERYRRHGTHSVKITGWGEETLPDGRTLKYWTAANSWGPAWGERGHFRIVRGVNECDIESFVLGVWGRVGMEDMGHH
Kind of assay: SPR; rhTINAGL1 (C-6×His) immobilised on Ni-NTA chip (Reichert 4SPR, 40 mM nickel sulfate); dilution series of rhPDGF-BB in PBST injected at 62.5 μL/min; association 4 min, dissociation 5 min; TraceDrawer v1.8.1. Particulars: both partners purified. In general terms: SPR reads the build-up and loss of mass on a sensor chip optically.

B1: recombinant human PDGF-BB (platelet-derived growth factor-BB) (ligand, UniProt P01127 82-190, looked up)
chain: SLGSLTIAEPAMIAECKTRTEVFEISRRLIDRTNANFLVWPPCVEVQRCSGCCNNRNVQCRPTQVQLRPVQVRKIEIVRKKPIFKKATVTLEDHLACKCETVAAARPVT
notes: platelet-derived growth factor subunit B, human, recombinant PDGF-BB; also called rhPDGF-BB; source: bought: Peprotech (Cat# 100-14B)
Broadly, the Kd is the constant that tells how readily two partners part at equilibrium. Consider B1, for which the dissociation constant (Kd) was determined as 185 nM.
